In test [1] the target is wildtype PoloBD-fusion protein (Drosophila melanogaster) (UniProt P52304). Description: yeast two-hybrid, serial dilutions.
In another test the target is T1, HA-Polo (Drosophila melanogaster, UniProt P52304 1-576).
T1 construct: Expressed with baculovirus in Sf9 cells; also called Polo with a 2XHA tag at the N-terminus; not shown: N-terminal 2XHA tag
T1 sequence (looked up): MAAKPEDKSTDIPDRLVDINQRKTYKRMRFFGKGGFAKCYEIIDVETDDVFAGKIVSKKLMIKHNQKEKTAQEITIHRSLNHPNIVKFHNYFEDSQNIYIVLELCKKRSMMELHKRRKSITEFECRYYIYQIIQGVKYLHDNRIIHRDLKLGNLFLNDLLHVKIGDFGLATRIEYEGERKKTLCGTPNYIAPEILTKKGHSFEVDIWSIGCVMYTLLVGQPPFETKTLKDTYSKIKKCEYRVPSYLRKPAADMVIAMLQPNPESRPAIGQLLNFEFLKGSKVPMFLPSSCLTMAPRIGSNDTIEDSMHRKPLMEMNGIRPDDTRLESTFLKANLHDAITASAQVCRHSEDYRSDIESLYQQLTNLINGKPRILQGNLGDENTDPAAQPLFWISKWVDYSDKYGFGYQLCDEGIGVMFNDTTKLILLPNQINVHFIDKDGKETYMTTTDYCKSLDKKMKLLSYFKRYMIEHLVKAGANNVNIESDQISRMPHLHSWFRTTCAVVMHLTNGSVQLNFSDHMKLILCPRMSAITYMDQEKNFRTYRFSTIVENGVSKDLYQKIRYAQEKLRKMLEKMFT
Description: purified Flag-Mtrm incubated with HA-Polo, immunoprecipitated with anti-Mtrm antibody, anti-HA Western blot (FIG. 18). On the procedure:
Protein from affinity-purified Flag-Mtrm and HA-Polo was used for an in vitro binding experiment. 50 μg Flag-Mtrm was mixed with the same amount of HA-Polo in 60 μl of the above buffer and incubated for 1 hr at 30° C. As a control, 50 μg HA-Polo in 60 μl was also incubated. After incubation, both protein samples were immunoprecipitated using 50 μl protein A agarose beads coated with anti-Mtrm antibody (from guinea pig) for 1 hr at 4° C. The agarose beads were washed 6 times with the above protein buffer.
For Western blotting, the beads were suspended in 40 μl of SDS loading buffer (50 mM Tris-HCl (pH 6.8), 100 mM DTT, 2% SDS, 0.1% bromophenol blue, 10% glycerol) and heated for 3 min at 95° C. before being loaded on a PAGE gel. Western blotting for HA-Polo was conducted using anti-HA antibody from mouse and an Alkaline Phosphatase chromogen kit (BCIP/NBT) (Roche). (FIG. 18).
A general note: Immunoblotting shows a protein as a band on a membrane.

The target of test [2] is T2, Polo kinase (Polo) (Drosophila melanogaster, UniProt P52304 1-576, T182 detected as phosphorylated (over 80%) in Polo bound to Mtrm).
T2 construct: Endogenous Polo in ovary extracts; also called polo (FBgn0003124)
T2 sequence (looked up): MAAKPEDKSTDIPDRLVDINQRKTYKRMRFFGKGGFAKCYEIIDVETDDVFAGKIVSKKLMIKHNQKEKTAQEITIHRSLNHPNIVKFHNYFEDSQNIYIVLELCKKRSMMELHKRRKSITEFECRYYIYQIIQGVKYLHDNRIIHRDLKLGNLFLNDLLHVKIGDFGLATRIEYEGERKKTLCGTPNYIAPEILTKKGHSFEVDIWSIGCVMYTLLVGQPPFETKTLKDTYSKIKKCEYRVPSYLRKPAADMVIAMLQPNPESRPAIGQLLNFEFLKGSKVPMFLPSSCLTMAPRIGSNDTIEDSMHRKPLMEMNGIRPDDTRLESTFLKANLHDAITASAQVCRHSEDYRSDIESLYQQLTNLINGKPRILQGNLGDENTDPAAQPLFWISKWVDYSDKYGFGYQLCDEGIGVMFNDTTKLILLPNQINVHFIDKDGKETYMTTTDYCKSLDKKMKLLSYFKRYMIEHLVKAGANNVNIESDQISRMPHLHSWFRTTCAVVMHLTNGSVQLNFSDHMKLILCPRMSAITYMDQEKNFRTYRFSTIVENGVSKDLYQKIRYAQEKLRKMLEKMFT
Description: anti-FLAG affinity purification from ovarian extracts, MudPIT mass spectrometry, three replicates. From the text:
We analyzed three independent affinity purifications from ovarian extracts expressing a C-terminally 3×FLAG-tagged Mtrm and used MudPIT mass spectrometry to identify interacting proteins. We then compared the identified proteins to those detected in five control FLAG immuno-precipitations from control (w¹¹¹⁸) flies.
In order to prepare a C-terminally 3×FLAG-tagged Mtrm for the MudPIT mass spectrometry assay, the UASP-mtrm-Flag (3×) construct was expressed in ovaries under the control of the nanos-GAL4 driver in a wild-type background. The extraction of protein from the ovaries was the same as described above. 100 μl of anti-FLAG beads were washed 2 times with pre-chilled 1×PBS and then 2 times with pre-chilled ovary extract buffer. The anti-FLAG beads were mixed with the extract supernatant, incubated and washed as described above. After washing, the beads bound with Mtrm-FLAG (3×) were finally transferred to a mini-column and washed with 25 ml of TBS (50 mM Tris-HCl, pH 7.4, 150 mM NaCl) at 4° C. When washing was completed, 300 μl TBS with 100 μg/ml 3×FLAG peptide was added to elute proteins. TCA was added to the eluted protein solution at a final concentration of 20%. The solution was mixed and kept on ice for at least 30 minutes. The solution was centrifuged at 14000 rpm at 4° C. for 15 minutes. […] The pellet was air dried and ready for the Mud PIT spectrometry analysis.

Test [3] has as its target T2, Polo kinase (Polo). Description: co-immunoprecipitation, ovary extracts. The procedure:
To prepare the ovary extract for immunoprecipitation, ovaries from 100 yeast-fed female flies were dissected in 1×PBS. The ovaries were homogenized in an Eppendorf tube at 4° C. by a small pestle in 0.5 ml of ovary extract buffer containing 25 mM Hepes (pH 6.8), 50 mM KCl, 1 mM MgCl₂, 1 mM DTT and 125 mM sucrose with protease inhibitors cocktail (Calbiochem). The extract was centrifuged at 14000×g for 15 minutes at 4° C. and the supernatant was collected.
Protein A agarose beads were used for binding polyclonal antibodies from rabbit and guinea pig. Protein G agarose beads were used for binding monoclonal antibody from mouse. 50 ul of protein A or G-coated agarose was washed three times with PBST (PBS+0.1% Triton X-100). 10 ul of antibody was added to the beads in a final volume of 500 ul of PBS and mixed on a shaker for 1 hour at 4° C. The beads then were washed twice with PBST. The ovary extract was immunoprecipitated with the beads for 1 hour at 4° C. with continual shaking. After recovery by centrifugation at 1000×g for 3 minutes, the beads were washed 4 times with the cold ovary extract buffer with protease inhibitors, for 5 minutes each. For Western blotting, the beads were suspended in 30 μl of SDS loading buffer (50 mM Tris-HCl (pH 6.8), 100 mM DTT, 2% SDS, 0.1% bromophenol blue, 10% glycerol) and heated for 3 minutes at 95° C. before being loaded on a PAGE gel. […]

In test [1], “MtrmT(40)A mutant MtrmAD-fusion protein (from UniProt Q23973 1-217)” showed a colonies at the third serial dilution of 1 colonies and a colonies following the first serial dilution of 7 colonies.

B1: Flag-Mtrm (other)
chain: MENSRTPTNKTKITLNRTPTLKERRWNTLKVNTSNVRCSTPIFGNFRSPNLSPIENMGTKGKSPVSPMRFATFKKVPTKVHPKQQQQQQHQHCHRTQLKPPPFVLPKPQEEIIEPEREIKSCSSPDTCSDDSNMETSLALESRRRSIKASNHSYVVNHAANVEQILMHMGLENYVTNFEEAHIDLVELASLERADLVKIGLNTDEDCNRIMDVLHTL
notes: Expressed with baculovirus in Sf9 cells; also called Mtrm with a Flag tag at the N-terminus; not shown: N-terminal Flag tag
For the molecule B1, the binding result in the test with HA-Polo is “binds”.

B2: C-terminally 3×FLAG-tagged Mtrm (other)
chain: MENSRTPTNKTKITLNRTPTLKERRWNTLKVNTSNVRCSTPIFGNFRSPNLSPIENMGTKGKSPVSPMRFATFKKVPTKVHPKQQQQQQHQHCHRTQLKPPPFVLPKPQEEIIEPEREIKSCSSPDTCSDDSNMETSLALESRRRSIKASNHSYVVNHAANVEQILMHMGLENYVTNFEEAHIDLVELASLERADLVKIGLNTDEDCNRIMDVLHTL
modifications: phosphorylation detected on T40, S124 (less reproducibly), S48, S52 and S137
notes: Expressed in ovaries under nanos-GAL4 in a wild-type background; purified on anti-FLAG beads for MudPIT; also called Mtrm-Flag(3×); Mtrm-FLAG (3×); not shown: C-terminal 3×FLAG tag
Take B2: the “ratio between the two proteins (NSAF)” value in the test with Polo kinase (Polo) [2] was 0.96 ratio of NSAF values.

B3: Mtrm with both PBD binding sites mutated (T(40)A and S(124)A) (other)
chain: MENSRTPTNKTKITLNRTPTLKERRWNTLKVNTSNVRCSAPIFGNFRSPNLSPIENMGTKGKSPVSPMRFATFKKVPTKVHPKQQQQQQHQHCHRTQLKPPPFVLPKPQEEIIEPEREIKSCSAPDTCSDDSNMETSLALESRRRSIKASNHSYVVNHAANVEQILMHMGLENYVTNFEEAHIDLVELASLERADLVKIGLNTDEDCNRIMDVLHTL
B3: the binding result with Polo kinase (Polo) [3] was “no binding”.

The values are drawn from patent publication US20090123934A1 (published 2009).
